Four substances from patent US20030195338A1 can be followed below.

The target of test [1] is T1, TNFβ (UniProt P01374).
T1 sequence (looked up): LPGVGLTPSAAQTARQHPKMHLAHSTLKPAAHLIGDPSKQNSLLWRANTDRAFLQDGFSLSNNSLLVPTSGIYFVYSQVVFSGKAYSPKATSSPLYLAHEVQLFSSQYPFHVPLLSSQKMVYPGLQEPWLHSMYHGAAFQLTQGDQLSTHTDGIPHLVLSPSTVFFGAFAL
Briefly: cell-based or functional assay.

The target in test [2] is TNFα (UniProt P01375). Briefly: cell-based or functional assay.
TNFα, sequence (P01375 77-233 limits assumed): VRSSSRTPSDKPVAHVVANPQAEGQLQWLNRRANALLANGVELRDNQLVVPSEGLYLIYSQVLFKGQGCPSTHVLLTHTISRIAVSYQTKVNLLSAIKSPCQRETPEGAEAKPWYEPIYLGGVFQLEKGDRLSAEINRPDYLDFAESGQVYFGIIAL

simple fusion dimeric protein [TNFR1/Fc]2 (Fc fusion), sequence (chain): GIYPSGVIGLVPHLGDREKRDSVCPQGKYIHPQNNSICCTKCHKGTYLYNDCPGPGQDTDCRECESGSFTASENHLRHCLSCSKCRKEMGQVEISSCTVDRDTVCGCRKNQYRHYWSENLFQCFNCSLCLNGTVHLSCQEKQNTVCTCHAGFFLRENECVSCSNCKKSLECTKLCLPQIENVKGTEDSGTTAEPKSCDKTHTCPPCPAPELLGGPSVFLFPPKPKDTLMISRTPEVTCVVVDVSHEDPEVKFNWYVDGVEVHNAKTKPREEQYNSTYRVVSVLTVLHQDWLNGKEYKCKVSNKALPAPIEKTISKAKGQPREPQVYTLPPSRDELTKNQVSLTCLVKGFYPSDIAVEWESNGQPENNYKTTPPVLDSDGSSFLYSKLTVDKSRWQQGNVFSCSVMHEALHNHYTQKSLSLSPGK
concatameric fusion dimeric protein [TNFR1-TNFR1/Fc]2 (Fc fusion), sequence (chain): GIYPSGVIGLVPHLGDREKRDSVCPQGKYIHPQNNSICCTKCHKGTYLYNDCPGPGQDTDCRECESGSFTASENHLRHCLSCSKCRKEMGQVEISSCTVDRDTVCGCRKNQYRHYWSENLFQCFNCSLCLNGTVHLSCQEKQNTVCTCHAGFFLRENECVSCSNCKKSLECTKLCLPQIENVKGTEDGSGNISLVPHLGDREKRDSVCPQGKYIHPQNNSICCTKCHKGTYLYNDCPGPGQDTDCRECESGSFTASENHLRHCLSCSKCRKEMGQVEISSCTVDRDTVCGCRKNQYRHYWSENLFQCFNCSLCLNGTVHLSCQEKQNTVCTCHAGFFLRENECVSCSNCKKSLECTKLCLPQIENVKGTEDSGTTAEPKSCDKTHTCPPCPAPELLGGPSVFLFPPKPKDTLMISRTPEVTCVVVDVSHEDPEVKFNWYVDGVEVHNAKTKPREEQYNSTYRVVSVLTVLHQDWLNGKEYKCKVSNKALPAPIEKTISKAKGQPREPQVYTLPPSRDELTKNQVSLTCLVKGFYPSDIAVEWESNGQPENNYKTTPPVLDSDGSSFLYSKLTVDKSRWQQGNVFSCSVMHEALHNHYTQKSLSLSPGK
concatameric fusion dimeric protein [TNFR2-TNFR2/Fc]2 (Fc fusion), sequence (chain): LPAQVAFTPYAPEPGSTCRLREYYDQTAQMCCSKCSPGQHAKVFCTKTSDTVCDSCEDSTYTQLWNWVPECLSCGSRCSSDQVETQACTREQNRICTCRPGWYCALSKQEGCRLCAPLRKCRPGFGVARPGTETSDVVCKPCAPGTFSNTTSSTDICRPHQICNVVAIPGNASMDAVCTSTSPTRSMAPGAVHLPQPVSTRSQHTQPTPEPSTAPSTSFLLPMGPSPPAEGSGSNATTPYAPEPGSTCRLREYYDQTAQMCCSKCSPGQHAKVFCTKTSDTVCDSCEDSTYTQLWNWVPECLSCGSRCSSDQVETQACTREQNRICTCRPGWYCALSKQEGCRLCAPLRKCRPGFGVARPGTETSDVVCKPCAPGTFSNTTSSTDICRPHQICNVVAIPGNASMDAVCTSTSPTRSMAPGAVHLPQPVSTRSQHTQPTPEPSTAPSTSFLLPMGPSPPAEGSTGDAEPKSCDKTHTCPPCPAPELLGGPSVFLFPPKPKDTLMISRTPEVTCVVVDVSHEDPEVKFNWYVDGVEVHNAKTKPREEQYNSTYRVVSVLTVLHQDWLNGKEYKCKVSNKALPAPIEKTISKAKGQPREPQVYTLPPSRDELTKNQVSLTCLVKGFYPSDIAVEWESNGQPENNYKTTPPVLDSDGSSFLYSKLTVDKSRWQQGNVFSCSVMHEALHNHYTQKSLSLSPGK
simple fusion dimeric protein [TNFR2/Fc]2 (Fc fusion), sequence (chain): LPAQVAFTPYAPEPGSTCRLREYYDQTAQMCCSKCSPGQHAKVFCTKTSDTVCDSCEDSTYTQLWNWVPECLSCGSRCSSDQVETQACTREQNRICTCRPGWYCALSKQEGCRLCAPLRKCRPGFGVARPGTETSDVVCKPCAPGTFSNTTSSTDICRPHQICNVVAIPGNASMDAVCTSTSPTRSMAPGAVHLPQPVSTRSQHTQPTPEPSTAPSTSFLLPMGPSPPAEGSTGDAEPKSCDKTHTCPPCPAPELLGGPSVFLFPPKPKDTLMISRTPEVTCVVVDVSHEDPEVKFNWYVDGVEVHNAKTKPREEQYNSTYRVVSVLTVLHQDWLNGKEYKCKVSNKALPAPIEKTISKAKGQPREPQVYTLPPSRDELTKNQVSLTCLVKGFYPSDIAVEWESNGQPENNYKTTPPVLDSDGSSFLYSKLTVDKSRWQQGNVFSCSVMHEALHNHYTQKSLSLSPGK

In test [1], “simple fusion dimeric protein [TNFR2/Fc]2 (Fc fusion)” returned an IC50 of cytotoxicity inhibition, L929 cells, TNFβ treated of 469 µg/mL. In addition, the IC50 of cytotoxicity inhibition, L929 cells, TNFα treated in test [2] stood at 189 µg/mL.
As for “concatameric fusion dimeric protein [TNFR1-TNFR1/Fc]2 (Fc fusion)”, the IC50 of cytotoxicity inhibition, L929 cells, TNFβ treated in test [1] came to 20 µg/mL. Further, the IC50 of cytotoxicity inhibition, L929 cells, TNFα treated in test [2] was found to be 9 µg/mL.
For “simple fusion dimeric protein [TNFR1/Fc]2 (Fc fusion)”, in test [1], the IC50 of cytotoxicity inhibition, L929 cells, TNFβ treated was found to be 129 µg/mL. In test [2], the IC50 of cytotoxicity inhibition, L929 cells, TNFα treated came to 63 µg/mL.
Take “concatameric fusion dimeric protein [TNFR2-TNFR2/Fc]2 (Fc fusion)”: in test [1], the IC50 of cytotoxicity inhibition, L929 cells, TNFβ treated stood at 15 µg/mL. The same substance registered an IC50 of cytotoxicity inhibition, L929 cells, TNFα treated in test [2] of 15 µg/mL.
